US20170267750A1, “Method of Treating Ovarian and Renal Cancer Using Antibodies Against T Cell Immunoglobulin Domain and Mucin Domain 1 (TIM-1) Antigen” (Celldex Therapeutics, Inc., priority 2005, published 2017)
Marks after values point to notes of the source that are not given here.

What was measured:
[1] = tested on: BT549 cells; assay: FACS analysis on antigen negative BT549 breast cancer cells (control); format: binding, human; conditions: normalized to isotype control (pK16)
[2] = tested on: Th1 cells; assay: Cytokine assay (ELISA of culture supernatants), CD4+ Th1 cells; format: cell-based, human; conditions: 5 μg/mL mAb
Experimental: (§1) IL-4, IL-5, IL-10, IL-13, and IFNγ production levels by activated Th1 and Th2 cell were measured in culture supernatants treated with anti-TIM-1 antibodies using standard ELISA protocols. Cytokine production by Th1 or Th2 cells treated with anti-TIM-1 antibodies was compared to Th1 or Th2 cells treated with the control PK16.3 antibody. In addition, the following samples were run in parallel as internal controls: i) anti-CD3 treated Th1 or Th2 cells, where no cytokine production is expected because of the absence of co-stimulation, ii) anti-CD3/anti-CD28 stimulated Th1 or Th2 cells, expected to show detectable cytokine production, and iii) untreated Th1 or Th2 cells. CD4+ T cells were isolated as described in the Example above. Isolated CD4+ lymphocytes were then spun down and re-suspended in DMEM 5% FCS plus additives (non-essential amino acids, sodium pyruvate, mercaptoethanol, glutamine, penicillin, and streptomycin) at 10^6 cells/mL. Falcon 6-well non-tissue culture treated plates were pre-coated overnight with anti-CD3 (2 μg/mL) and anti-CD28 (10 μg/mL) (600 μL total in Dulbecco's PBS) overnight at 4° C. The plates were washed with PBS and CD4+ lymphocytes were suspended at 500,000 cells/mL in Th2 medium: DMEM+10% FCS plus supplements and IL-2 5 ng/mL, IL-4 5 ng/mL, anti-IFN gamma 5 μg/mL and cells were stimulated 4-6 days at 37° C. and 5% CO2 in the presence of 5 μg/mL of mAb recognizing the TIM-1 protein or isotype matched negative control mAb PK16.3.
(§2) In another set of experiments, CD4+ lymphocytes were suspended at 500,000 cells/mL in Th1 medium: DMEM+10% FCS plus supplements and IL-2 5 ng/mL, IL12 5 ng/mL, anti-IL-4 5 μg/mL and stimulated 4-6 days 37° C. temp and 5% CO2 in the presence of 5 μg/mL TIM-1 or isotype matched control mAb PK16.3. Cells were washed two times in DMEM and resuspended in DMEM, 10% FCS plus supplements and 2 ng/mL IL-2 (500,000 cells/mL) in the presence of 5 μg/mL TIM-1 mAb or control PK16.3 mAb and cultured (rested) for 4-6 days at 37° C. and 5% CO2. The process of activation and resting was repeated at least once more as described above with the addition of anti-CD95L (anti-FAS ligand) to prevent FAS-mediated apoptosis of cells. Falcon 96-well non-tissue culture treated plates pre-coated overnight with anti-CD3 mAb at 500 ng/mL and costimulatory molecule B7H2 (B7 homolog 2) 5 μg/mL were washed and 100 μL of TIM-1 mAb treated Th1 or Th2 (200,000 cells) added per well. After 3 days of culture, the supernatants were removed and IL-4, IL-5, IL-10, IL-13, and IFNγ […]levels were determined by ELISA (Pharmingen, San Diego, Calif. or R&D Systems, Minneapolis, Minn.).

[3] = target: T1, TIM-1 protein on human CD4+ Th2 cells (Homo sapiens, UniProt Q96D42); assay: FACS analysis of expression of TIM-1 protein on human CD4+ Th2 cells; format: binding
T1 construct: a major fraction of polarized human Th2 and Th1 cells do express TIM-1; endogenous in cells; host or cells: primary human CD4+ T cells from blood
T1 sequence (Q96D42 21-364): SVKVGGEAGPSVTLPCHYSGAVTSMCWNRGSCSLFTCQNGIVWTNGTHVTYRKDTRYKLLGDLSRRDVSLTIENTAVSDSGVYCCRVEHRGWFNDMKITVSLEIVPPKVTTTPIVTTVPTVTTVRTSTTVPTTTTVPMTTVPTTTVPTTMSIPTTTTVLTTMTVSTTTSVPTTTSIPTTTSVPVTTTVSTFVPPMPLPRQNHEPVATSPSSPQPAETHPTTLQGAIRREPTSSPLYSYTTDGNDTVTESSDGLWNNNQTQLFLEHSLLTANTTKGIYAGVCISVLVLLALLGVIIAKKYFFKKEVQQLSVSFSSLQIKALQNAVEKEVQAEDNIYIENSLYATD
Experimental: Mononuclear cells were isolated from human blood diluted 1:1 in PBS, by spinning over Ficoll for 20 minutes. The mononuclear cells were washed twice at 1000 rpm with PBS-Mg and Ca and re-suspended in Miltenyi buffer (Miltenyi Biotec Inc., Auburn, Calif.); PBS, 0.5% BSA, 5 mM EDTA at approximately 10^8 cells/mL. 20 μL of CD4 Miltenyi beads were added per 107 cells and incubated for 15 minutes on ice. Cells were washed with a 10-fold excess volume of Miltenyi buffer. A positive selection column (type VS+) (Miltenyi Biotec Inc., Auburn, Calif.) was washed with 3 mL of Miltenyi buffer. The pelleted cells were re-suspended at 10^8 cells per mL of Miltenyi buffer and applied to the washed VS column. The column was then washed three times with 3 mL of Miltenyi buffer. Following this, the VS column was removed from the magnetic field and CD4+ cells were eluted from the column with 5 mL of Miltenyi buffer. […]
FACS analysis was performed to determine the expression of TIM-1 protein as detected with five anti-TIM-1 monoclonal antibodies (2.59.2, 1.29, 2.70.2, 2.56.2, 2.45.1) on human and mouse resting CD4+ T cells, as well as human activated and human polarized CD4+ T cells.
Data is reported as the geometric mean of the fluorescence intensity.

[4] = target: T2, TIM-1 antigen (Homo sapiens, UniProt Q96D42, DEL158-162/L179P); assay: Epitope binning (antigen binding competition, Luminex)
T2 construct: V5; His; made in house; host or cells: baculovirus expression system (pMelV5His vector / pBlueBac)
T2 sequence (Q96D42 with tags, fused parts or gaps DEL158-162/L179P): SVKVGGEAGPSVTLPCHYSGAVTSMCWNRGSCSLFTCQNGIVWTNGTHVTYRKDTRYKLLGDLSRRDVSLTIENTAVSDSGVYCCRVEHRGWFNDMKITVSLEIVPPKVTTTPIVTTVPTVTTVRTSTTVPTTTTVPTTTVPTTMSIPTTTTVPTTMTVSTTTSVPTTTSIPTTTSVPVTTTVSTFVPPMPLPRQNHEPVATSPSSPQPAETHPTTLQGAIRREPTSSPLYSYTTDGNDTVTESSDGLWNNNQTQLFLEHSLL
Experimental: Certain antibodies, described herein were “binned” in accordance with the protocol described in U.S. Patent Application Publication No. 20030157730, published on Aug. 21, 2003, entitled “Antibody Categorization Based on Binding Characteristics.”
MxhIgG conjugated beads were prepared for coupling to primary antibody. The volume of supernatant needed was calculated using the following formula: (n+10)×50 μL (where n=total number of samples on plate). Where the concentration was known, 0.5 μg/mL was used. Bead stock was gently vortexed, then diluted in supernatant to a concentration of 2500 of each bead per well or 0.5×10^5/mL and incubated on a shaker in the dark at room temperature overnight, or 2 hours if at a known concentration of 0.5 μg/mL. Following aspiration, 50 μL of each bead was added to each well of a filter plate, then washed once by adding 100 μL/well wash buffer and aspirating. Antigen and controls were added to the filter plate 50 μL/well then covered and allowed to incubate in the dark for 1 hour on shaker. Following a wash step, a secondary unknown antibody was added at 50 μL/well using the same dilution (or concentration if known) as used for the primary antibody. The plates were then incubated in the dark for 2 hours at room temperature on shaker followed by a wash step. Next, 50 μL/well biotinylated mxhIgG diluted 1:500 was added and allowed to incubate in the dark for 1 hour on shaker at room temperature. Following a wash step, 50 μL/well Streptavidin-PE was added at 1:1000 and allowed to incubate in the dark for 15 minutes on shaker at room temperature. Following a wash step, each well was resuspended in 80 μL blocking buffer and read using a Luminex system.

[5] = tested on: Th2 cells; assay: Cytokine assay (ELISA of culture supernatants), CD4+ Th2 cells; format: cell-based, human; conditions: for IL-5 production, percent of cytokine production detected using the control PK16.3 mAb / IL-10 production, percent of cytokine production detected using the control PK16.3 mAb / IL-13 production, percent of cytokine production detected using the control PK16.3 mAb / IL-4 production, percent of cytokine production detected using the control PK16.3 mAb: Th2
Experimental: as §1, §2
Each experiment used purified CD4+ cells isolated from whole blood samples from two independent donors. Cytokine production is reported as the percent of cytokine production detected using the control PK16.3 mAb. The anti-TIM-1 mAb used in each experiment is specified along the bottom row.

[6] = TH1, Donor 12 + 17, control PK16.3 mAb
[7] = 5 μg/mL mAb, compared to control PK16.3 mAb
[8] = TH2, Donor 12 + 17, control PK16.3 mAb, 5 μg/mL mAb

B1: mAb 1.29: fully human IgG2 kappa anti-TIM-1 monoclonal antibody; heavy chain SEQ ID NO: 2, light chain SEQ ID NO: 4 (antibody, listed as Homo Sapiens, V domains shown)
VH: QVQLQESGPGLVKPSETLSLTCTVSGGSVSSGGYYWSWIRQPPGKGLEWIGFIYYTGSTNYNPSLKSRVSISVDTSKNQFSLKLSSVTAADAAVYYCARDYDWSFHFDYWGQGTLVTVSSA
VL: DIQMTQSPSSLSASIGDRVTITCRASQGIRNDLGWYQQKPGKAPKRLIYAASSLQSGVPSRFSGSGSGTEFTLTISSLQPEDFATYYCLQHNSYPLTFGGGTKVEIKR
Q: For B1, which “Geo Mean Ratio (relative to negative control) BT549” value [1] is on record?
A: Its value is 1.2.

Q: And the “IL-10 release from Th1 cells” value ([2]; compared to control PK16.3 mAb)?
A: Its value is “significantly inhibited”.

Q: What about the “IL-13 release from Th1 cells” value ([2]; compared to control PK16.3 mAb) of the same molecule?
A: Its value is “significantly inhibited”.

Q: And the “IL-4 Percentage of Control Antibody” value [2, 6]?
A: The value was 81.05 Percentage of Control Antibody.

Q: What about the “IL-5 Percentage of Control Antibody” value [2, 6] of the same molecule?
A: Its value is 94.63 Percentage of Control Antibody.

Q: And the “IL-10 Percentage of Control Antibody” value [2, 6]?
A: Its value is 60.77 ** Percentage of Control Antibody.

Q: What about the “IL-13 Percentage of Control Antibody” value [2, 6] of the same molecule?
A: The value was 73.95 *** Percentage of Control Antibody.

Q: What about the “INF γ Percentage of Control Antibody” value [2, 6] of the same molecule?
A: Its value is 93.51 Percentage of Control Antibody.

Q: What about the “Geometric mean of fluorescence intensity” value ([3]; Polarized Human CD4+ Th2 Cells) of the same molecule?
A: Its value is 22.3.

Q: What about the “Geometric mean of fluorescence intensity” value ([3]; Resting Human CD4+ T cells) of the same molecule?
A: The value was 4.7.

Q: What about the BIN ([4]; Table 8) of the same molecule?
A: Its BIN is 1.

Q: And the Bin ([4]; Table 9)?
A: The Bin was 1.

Q: And the “IL-5 release from Th2 cells” value [5, 7]?
A: The value was “significantly inhibited”.

Q: And the “IL-10 release from Th2 cells” value [5, 7]?
A: Its value is “significantly inhibited”.

Q: And the “IL-13 release from Th2 cells” value [5, 7]?
A: The value was “significantly inhibited”.

Q: What about the “IL-4 Percentage of Control Antibody” value [5, 8] of the same molecule?
A: Its value is 112.54 Percentage of Control Antibody.

Q: And the “IL-5 Percentage of Control Antibody” value [5, 8]?
A: Its value is 80.26 Percentage of Control Antibody.

Q: What about the “IL-10 Percentage of Control Antibody” value [5, 8] of the same molecule?
A: The value was 44.45 * Percentage of Control Antibody.

Q: And the “IL-13 Percentage of Control Antibody” value [5, 8]?
A: The value was 48.91 ** Percentage of Control Antibody.

Q: What about the “INF γ Percentage of Control Antibody” value [5, 8] of the same molecule?
A: The value was 112.54 Percentage of Control Antibody.

Q: What about the “IL-5 production, percent of cytokine production detected using the control PK16.3 mAb” value (“IL-5 production, percent” for short) ([5]; Donor ID 12) of the same molecule?
A: Its value is 2%.

Q: What about the “IL-10 production, percent of cytokine production detected using the control PK16.3 mAb” value (“IL-10 production, percent” for short) ([5]; Donor ID 12) of the same molecule?
A: The value was 109%.

Q: And the “IL-13 production, percent of cytokine production detected using the control PK16.3 mAb” value (from here on “IL-13 production, percent”) ([5]; Donor ID 12)?
A: Its value is 91%.

Q: What about the “IL-4 production, percent of cytokine production detected using the control PK16.3 mAb” value ([5]; Donor ID 12 + 14) of the same molecule?
A: Its value is 626%.

Q: What about the “IL-5 production, percent” value ([5]; Donor ID 12 + 14) of the same molecule?
A: Its value is 5%.

Q: And the “IL-10 production, percent” value ([5]; Donor ID 12 + 14)?
A: The value was 83%.

Q: And the “IL-4 production, percent of cytokine production detected using the control PK16.3 mAb” value ([5]; Donor ID 13 + 14)?
A: The value was 130%.

Q: What about the “IL-5 production, percent” value ([5]; Donor ID 13 + 14) of the same molecule?
A: The value was 122%.

Q: And the “IL-10 production, percent” value ([5]; Donor ID 13 + 14)?
A: Its value is 19%.

Q: What about the “IL-13 production, percent” value ([5]; Donor ID 13 + 14) of the same molecule?
A: Its value is 17%.

Q: What about the “IL-5 production, percent” value ([5]; Donor ID 14) of the same molecule?
A: Its value is 67%.

Q: What about the “IL-10 production, percent” value ([5]; Donor ID 14) of the same molecule?
A: Its value is 45%.

Q: And the “IL-13 production, percent” value ([5]; Donor ID 14)?
A: Its value is 100%.

Q: And the “block of Th2 cytokines across donor groups” value ([5]; multiple experiments with different donors)?
A: Its value is “reproducibly block one or more of the Th2 cytokines”.
